This is an account of results in paper PMC9332313, “Folding and Binding Mechanisms of the SH2 Domain from Crkl” (Biomolecules, 2022).

Square brackets hold non-standard residues; d marks the D form. Ends that are not written are not given here. * marks the point of attachment. pY = N[C@@H](Cc1ccc(OP(=O)(O)O)cc1)C(=O)O; Dansyl = CN(C)c1cccc2c(S(=O)(=O)*)cccc12

The target in this experiment is T1, SH2 domain of Crkl protein (residues 1-111), H80A variant (UniProt P46109 1-111, H80A).
T1 construct: Crkl adaptor protein, SH2 domain, residues 1-111, His80 replaced by alanine; Site-directed mutant of m1 (QuikChange); source: E. coli BL21 (DE3), purified (HisTrap nickel column, desalting); not shown: His tag, N-terminal, kept
As to the kind of experiment: stopped-flow fluorescence kinetics (FRET); dansyl-Pax112-123 constant at 2 μM mixed with Crkl-SH2 2 to 10 μM (pseudo-first-order, kon); koff by displacement of the preincubated 2 µM complex with excess non-dansylated Pax112-123 (30 μM); 283 K; 50 mM TrisHCl pH 8.5, 0.5 M NaCl. Conditions: both partners purified.

T1 sequence (P46109 1-111 H80A): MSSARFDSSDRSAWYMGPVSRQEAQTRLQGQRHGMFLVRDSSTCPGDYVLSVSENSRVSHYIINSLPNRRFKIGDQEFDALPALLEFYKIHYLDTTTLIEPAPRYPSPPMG

B1: dansylated Pax_(112–123) peptide (Dans-GEEEHV-pY-SFPNK) (peptide)
peptide: Dansyl-GEEEHV[pY]SFPNK
notes: The dansyl group is the FRET acceptor of Trp14 of the SH2 domain; source: synthetic peptide, bought: GenScript
Regarding B1, binding was characterised by a dissociation constant (Kd) of 3.2 ± 0.5 µM; the koff (as a rule, a measure of how fast the partners let go of each other) came to 32.5 ± 2.7 s⁻¹; the kon (as a rule, a measure of how fast the partners come together) worked out at 1.02e+07 ± 1.2e+06 M⁻¹ s⁻¹.
